Publication doi:10.1101/2022.04.12.487901 (bioRxiv, 2022)
Residue numbers refer to the chain shown, from its start.

Tests used:
CHMP3_S75C = biological target: T1, CHMP3_S75C (human, UniProt Q9Y3E7 9-183, S75C); test: cross-linking
T1 sequence (looked up): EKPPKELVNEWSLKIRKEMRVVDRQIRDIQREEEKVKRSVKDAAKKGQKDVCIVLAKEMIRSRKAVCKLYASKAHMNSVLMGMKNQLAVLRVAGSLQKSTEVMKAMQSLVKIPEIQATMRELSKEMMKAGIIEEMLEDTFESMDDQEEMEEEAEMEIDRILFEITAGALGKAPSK

CHMP3_V110C = biological target: T2, CHMP3_V110C (human, UniProt Q9Y3E7 9-183, V110C); test: cross-linking
T2 sequence (looked up): T1 sequence (looked up) with C67S, V102C

[1] = biological target: T3, CHMP3 full length (residues 1-222) (human, UniProt Q9Y3E7 1-222); test: cryo-EM structure
T3 sequence (looked up): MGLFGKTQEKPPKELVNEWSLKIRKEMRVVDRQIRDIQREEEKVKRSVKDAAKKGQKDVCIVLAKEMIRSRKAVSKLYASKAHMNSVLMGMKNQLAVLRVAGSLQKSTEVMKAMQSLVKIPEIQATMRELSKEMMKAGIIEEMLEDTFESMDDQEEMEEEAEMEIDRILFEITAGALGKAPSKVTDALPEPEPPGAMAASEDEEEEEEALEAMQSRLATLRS

cryo-EM structure = biological target: the molecule itself; test: cryo-EM structure
[2] = biological target: T3, CHMP3 full length (residues 1-222); test: negative staining EM of polymer
[3] = biological target: T4, CHMP3_K112A, K119A, K132A, K136A (human, UniProt Q9Y3E7 9-183, K112A | K119A | K132A | K136A); test: negative staining EM of polymer
T4 sequence (looked up): T1 sequence (looked up) with C67S, K104A, K111A, K124A, K128A

B1: CHMP2A_D57C (domain or fragment, human, UniProt O43633 9-161, looked up)
chain: KTPEELLRQNQRALNRAMRELDRERQKLETQEKKIIADIKKMAKQGQMCAVRIMAKDLVRTRRYVRKFVLMRANIQAVSLKIQTLKSNNSMAQAMKGVTKAMGTMNRQLKLPQIQKIMMEFERQAEIMDMKEEMMNDAIDDAMGDEEDEEESD
binding result (CHMP3_S75C): binds

B2: CHMP2A_N18C (domain or fragment, human, UniProt O43633 9-161, looked up)
chain: B1 chain with N10C, C49D
binding result (CHMP3_V110C): binds

B3: CHMP2AΔC (C-terminally truncated CHMP2A, residues 1-161), MBP removed (domain or fragment, human, UniProt O43633 1-161, looked up)
chain: MDLLFGRRKTPEELLRQNQRALNRAMRELDRERQKLETQEKKIIADIKKMAKQGQMDAVRIMAKDLVRTRRYVRKFVLMRANIQAVSLKIQTLKSNNSMAQAMKGVTKAMGTMNRQLKLPQIQKIMMEFERQAEIMDMKEEMMNDAIDDAMGDEEDEEESD
binding result [1]: binds
binding result (cryo-EM structure): binds

B4: CHMP2AΔC (residues 1-161) wild type, MBP fusion as used for tube formation without membrane coating (domain or fragment, human, UniProt O43633 1-161, looked up)
chain: B3 chain
binding result [2]: binds
binding result [3]: binds
